Assay results published in patent US8354392B2, “Drug-introduced photo-crosslinked hyaluronic acid derived gel” (priority 2005, dated 2013).

Experiments:
Assay type in all cases: physicochemical
[1] = Extrusion state from the tip of a 23 G injection needle (characteristics); set-up: key: ◯: formed a mass or a lump having a shape-maintaining property at the tip of the injection needle; X: did not form a mass; settings: slowly extruded from an injection needle with 23 G downward
Protocol: (§1) Evaluation was carried out in accordance with the following criteria.

[2] = Viscosity measured with a rotation viscometer; settings: gel from 1% solution in phosphate buffered physiological saline, photoirradiated, heat treatment; rotation viscometer at 20° C., standard cone (1°34′, 1 rpm)
Protocol: A 1% phosphate buffered physiological saline solution of the obtained naproxen-introduced photo-reactive HA (photo-reactive group: cinnamic acid) was prepared, and filled in a 5 mL glass syringe.
as §1

[3] = Extrusion feeling through a 23 gauge injection needle; set-up: key: ◯: easily extruded; X: difficulty extruded; settings: whole gel (2 ml to 5 ml) in 5 ml syringe, 23 gauge needle, limit pressure 0.5 to 5 kg/cm^2
Protocol: Evaluation was carried out in accordance with the following criteria. ◯: easily extruded X: difficulty extruded Incidentally, with regard to the criteria for the extrusion feeling, within the range of a limit pressure (0.5 to 5 kg/cm^2), when a whole gel (2 ml to 5 ml) filled in a syringe having a volume of 5 ml was extruded through an injection needle of 23 gauge, it was evaluated to as easily extruded (◯). Also, according to the same operation, when not a whole gel filled in a syringe was extruded, for example, by clogging due to insoluble materials, it was evaluated to as difficulty extruded (X).

Substance	Extruded state [1]	viscosity [2] [Pa·s]	Extrusion feeling [3]
actarit-introduced photo-crosslinked HA gel [Example 8]	◯	10.8	◯
etodolac-introduced photo-crosslinked HA gel [Example 7]	◯	12.7	◯
felbinac-introduced photo-crosslinked sodium hyaluronate gel [Example 5]	X	7.32	◯
flurbiprofen-introduced photo-crosslinked HA gel [Example 4]	◯	21.2	◯
ibuprofen-introduced photo-crosslinked HA gel [Example 3]	◯	13.1	◯
